We go through 2 molecules from US20190352660A1 (PLANT BIOSCIENCE, published 2019).

For the assay, the target named is T1, GST-GUS (UniProt P05804 1-603, limits assumed).
T1 construct: Negative control bait; also called GST-tagged beta-glucuronidase; negative control GST-GUS; not shown: GST tag
The assay is described as follows: in vitro GST pull-down on glutathione sepharose beads, immunoblot for GST and FLAG. As for the experimental part: E. coli expressed GST-tagged bait proteins were incubated with E. coli expressed FLAG-tagged prey proteins before purification on glutathione sepharose beads and immunoblotting for GST and FLAG.
Following this growth phase, the cultures were centrifuged at 4500×g for 10 minutes, the supernatants were discarded and the pellets resuspended at 4° C. in 2.5 ml TGH Buffer (50 mM HEPES (pH7.5), 150 mM NaCl, 1% Triton-X-100, 10% Glycerol, 1 mM DTT, 1 complete EDTA-free protease inhibitor tablet (per 50 ml) (Roche 11873580001)). The bacterial suspension was then sonicated (on ice) for four bursts of ten seconds, separated by 20-second intervals, before being centrifuged at 12 000×g for 20 minutes to pellet any cellular debris. Cleared sonicates were then stored on ice while a 50% slurry of washed glutathione sepharose beads (GE Life Sciences 17-0756-01) was prepared according to the manufacturer's instructions. 20 μl of the 50% glutathione sepharose slurry was then combined with 2.5 ml of protein extract from bait protein (GST-tagged) expressing cells and 2.5 ml of protein extract from prey protein (HA-/FLAG-/HIS-tagged) expressing cells. […] After washing, proteins were eluted with 35 μl GST-elution buffer (50 mM TRIS-glycine (pH8.0), 10 mM reduced glutathione) over 30 minutes at 4° C. before being analysed by western blot analysis. […]
For orientation: Immunoblotting shows a protein as a band on a membrane.

T1 sequence (P05804 whole entry): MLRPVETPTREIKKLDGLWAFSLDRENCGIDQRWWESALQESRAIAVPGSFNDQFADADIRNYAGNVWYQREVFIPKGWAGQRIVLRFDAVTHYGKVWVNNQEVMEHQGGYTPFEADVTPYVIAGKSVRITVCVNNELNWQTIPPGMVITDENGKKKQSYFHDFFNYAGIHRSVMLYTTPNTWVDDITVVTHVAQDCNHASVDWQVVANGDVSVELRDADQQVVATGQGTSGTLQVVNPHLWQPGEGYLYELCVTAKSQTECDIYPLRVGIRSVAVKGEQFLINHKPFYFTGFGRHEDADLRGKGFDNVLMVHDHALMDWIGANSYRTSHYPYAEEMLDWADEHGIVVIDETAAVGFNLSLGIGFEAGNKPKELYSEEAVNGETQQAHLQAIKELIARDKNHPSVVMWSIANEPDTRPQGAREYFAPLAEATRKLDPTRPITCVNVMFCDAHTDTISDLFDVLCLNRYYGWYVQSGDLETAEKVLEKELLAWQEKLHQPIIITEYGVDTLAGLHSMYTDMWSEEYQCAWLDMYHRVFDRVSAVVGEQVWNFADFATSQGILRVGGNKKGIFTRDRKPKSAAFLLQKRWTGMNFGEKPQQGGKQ

B1: FLAG-DA1 (other)
chain: MGWFNKIFKGSNQRLRVGNNKHNHNVYYDNYPTASHDDEPSAADTDADNDEPHHTQEPSTSEDNTSNDQENEDIDRAIALSLLEENQEQTSISGKYSMPVDEDEQLARALQESMVVGNSPRHKSGSTYDNGNAYGAGDLYGNGHMYGGGNVYANGDIYYPRPITFQMDFRICAGCNMEIGHGRFLNCLNSLWHPECFRCYGCSQPISEYEFSTSGNYPFHKACYRERYHPKCDVCSHFIPTNHAGLIEYRAHPFWVQKYCPSHEHDATPRCCSCERMEPRNTRYVELNDGRKLCLECLDSAVMDTMQCQPLYLQIQNFYEGLNMKVEQEVPLLLVERQALNEAREGEKNGHYHMPETRGLCLSEEQTVSTVRKRSKHGTGKWAGNITEPYKLTRQCEVTAILILFGLPRLLTGSILAHEMMHAWMRLKGFRTLSQDVEEGICQVMAHKWLDAELAAGSTNSNAASSSSSSQGLKKGPRSQYERKLGEFFKHQIESDASPVYGDGFRAGRLAVHKYGLRKTLEHIQMTGRFPV
notes: E. coli expressed prey protein; also called FLAG-tagged wild-type DA1; AtDA1; not shown: FLAG tag
Regarding B1, the binding result is “no binding”.

B2: FLAG-da1lim8 (other)
chain: MGWFNKIFKGSNQRLRVGNNKHNHNVYYDNYPTASHDDEPSAADTDADNDEPHHTQEPSTSEDNTSNDQENEDIDRAIALSLLEENQEQTSISGKYSMPVDEDEQLARALQESMVVGNSPRHKSGSTYDNGNAYGAGDLYGNGHMYGGGNVYANGDIYYPRPITFQMDFRIGAGGNMEIGHGRFLNCLNSLWHPECFRGYGGSQPISEYEFSTSGNYPFHKACYRERYHPKCDVCSHFIPTNHAGLIEYRAHPFWVQKYCPSHEHDATPRCCSCERMEPRNTRYVELNDGRKLCLECLDSAVMDTMQCQPLYLQIQNFYEGLNMKVEQEVPLLLVERQALNEAREGEKNGHYHMPETRGLCLSEEQTVSTVRKRSKHGTGKWAGNITEPYKLTRQCEVTAILILFGLPRLLTGSILAHEMMHAWMRLKGFRTLSQDVEEGICQVMAHKWLDAELAAGSTNSNAASSSSSSQGLKKGPRSQYERKLGEFFKHQIESDASPVYGDGFRAGRLAVHKYGLRKTLEHIQMTGRFPV
notes: E. coli expressed prey protein; It is a DA1 variant with a mutated LIM domain; also called FLAG-tagged DA1lim8; not shown: FLAG tag
Take B2: the binding result is listed as “no binding”.
